From the DeepSol protein solubility set

assay: soluble on expression in E. coli; label from the status in PepcDB or PDB records

Soluble on expression in E. coli, not soluble:
MLYSSNAILLTVICYELPLSERIRMLLRLEDLFDKIDFFSARDTSFEHHAVLVALFEILDVTSRSDLKSDLLQELDKQRTMLEGLRSNPEVSEKALDHILQDIRAAFRGLLDIPGRIGGHLRDDEWLMSVKQRMSIPGAACEFDLPAYHYWLNLAPEIRREDLKDWITPFTPIRSGINIVLNMLRNSGKNCCYTAVQGLFQQAGSEHQAHLLRLHISSEFPCVPEISANKYALNIRFVPWRSDHKTEVYEEDIPFELTFCSL
MSLSSPTADVEKLRRIIEVARGDRRADFVVKNAQIVDLVNEEIFEGDIAVAEGFIAGIGSYSGVEECEASNLVAVPGLIDAHTHIEMSMLTVSEFARLVVPRGTTGVVADPHEIANVLGKDGVMLMLEEARSTPLRFYCMVPSCVPSSPLETSGARIGVEEIRELLEEEEVLGLAEMMNFPGVVSADREVLEKIVLAGIVDGHAPGLRGKKLNAYIAAGASSDHETTSFEEGKEKLRLGMWVMIREGSAARNLVALKGLTGNRHTMLVTDGDRSVKDIIEEGYLDHVFRRAIEEGIDEIKALQMLTLNPAEYFGINAGLIAPSRLADIVLLKNLRKFEVRDVFVGGRRPEFKRFNHPEWAKKTVKARKITPESIQLKTGRVRVIEVYDGEIVTGEAIEEVQGVDVERDILKAVVVERHIRSGRVGKAYVRGFGLKRGAIAQSIAHDAHNIVCVGVDDGSICAAVNRVIELQGGIVVADAEVRAELPLPIAGIMSDERAERVLERLSEIEEEVRKLGCRLKSPVITLSFIALPVIPKLKLTDLGLVDVEAFRVVDLQADEGHHHHHH
LKDFRYGIRLTGTTIKNEVISLGGKRIASGDIGAGKSVQMTEEGKPIKYFYGYNVIGIFQNEAQIKDYNERAAAATGNAGQQYQNNVGPGDLIYEDVDGDGYITANDRKDLGSPTPKFIGGLGISAFWKGFDLSIDFQGNFGNKIFNAKQVERFSGSDNWDRSFLDRWTPENPNTMTPRMTLEGNNYQVSSRYVESGSYVKLQTVELGYTFPKSWMQKVSVQNLRVYFSGNNLAYFTGYNGFTPEVLGGIDRQIYPVTATCRFGLNVTF
MGSDKIHHHHHHMKFIVTPDIFEKLPDMYVGVVVAKGIDNSKNYPEIDRLLNRYMKYSQQKFDGINVKQNDEIIPYREAFRKIGINPNRYPCSAEALFKRLSKGKNLPHINPLVNLNNAISLKYTVLMGTHSLDGVQDDIIMRLTKSGDNFVPLGKDEVEEPDEGEVVYAVGSDVCIRRWTWRQSEHSKITDQTHDVFFPIDGFVDVNRDAVDKAREDLVGKSKEIFGVETQVGYVDKNHPEFEWE
MDKVIFYSNIRNLIFKKCSIQFLIINDTVAHKEQVAMREMNQLVNTEDSAWPIIQNWLKDATNHTELLPVNKDLAETALYQLQVTTKSPMGALVYGSGGLLIDNGLEHHHHHH
MTTDLITVKQVTKTYGSKNKEIAALKDISLAIPKGTTLGIIGESGSGKTTLGKLIAGIESPTSGEIDYNGQVVHKLKAAHKRDFLQKVQFIFQDSTAALNPRWKVRDSVTEGYISFGLGDKGLKDKVAGDALERVGLDRRYINRYPHEFSGGQRQRIAIARALLCEPEVLILDEPISALDVSLQIQIVHLLQKIQREQGYTYLFIAHDLPMVHYLCEKVAVLYKGELVEFGNTDEVFRNPQHSYTKTLLASTPKISG
MSAKRCASYYNATIKQESDYPELEGDIHVDVTIIGGGFTGVATAVELSEKGYKVALLEANKIAWGATGRNGGQVTGSLSGDAAMTKQLRRHLGQDAEDYVWNLRWRGHDIIKNRVAKYGIDCDLKFGHIQTAYHPGHMQELQQMFDEANRRGMGEFMTLVPAQEMSAYLASPLYHGGLVNRRNMHLHSVNLCLGEARAAASLGAQIFEHSQVLDIQQAELATVVTPKGTVKANSVLIAGNAYHKLGRPKLRGMLFPASLGNCATAKLPEELAKQLNPQNLAVYDCRFVLDYYRLTADNRLMFGGGTNYSGRDPKNVAAELRPAIERTFPQLKGVDIEFAWAGMAGIVINRIPQLGKISPNIFYCQGYSGHGVATSHIMAEIMGQAIDGQMQEFDLFAAMRHIRIPLNEWFGNQALALGMLYYTLRENWRLEHHHHHH
MAHHHHHHMAAPSHQHSLVLERSTCHHYYHCVLYDILFDLPVREIAAQVVPCKDSNIVQRLTSADCRVVPHQLHVYKEPLEKKFGYVSFFVHRAPHSSTAADDVHRLVCEWVAVDLASQLATVQCKVQLAQPPECHSSEPFLNAFRLKCPLLDPTLAADTKKLETFVLTRVRFGQHCGNASVNQLNAVHCDDAKSAASAGSCGTETEMCTDDGLTATEGELDAGARSATRTLDEHVWKCVGTFLIASLSPKELVWLKKQLPSFPPLRIANGDMDTAYCDEAKLAQFFETSLAPLFTVDEVVEAAALNTVNSEA
